Experimental data: patent publication US11608374 (dated 2023)
Changes are numbered by the printed parent chain.

T1: cynomolgus sclerostin (cynomolgus monkey)
T1 chain: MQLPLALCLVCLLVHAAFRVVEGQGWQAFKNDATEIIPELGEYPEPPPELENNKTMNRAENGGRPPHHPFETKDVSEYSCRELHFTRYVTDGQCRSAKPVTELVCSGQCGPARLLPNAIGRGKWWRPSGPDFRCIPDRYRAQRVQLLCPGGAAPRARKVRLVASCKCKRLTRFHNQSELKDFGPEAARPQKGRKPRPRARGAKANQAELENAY

T2: mouse sclerostin (mouse)
T2 chain: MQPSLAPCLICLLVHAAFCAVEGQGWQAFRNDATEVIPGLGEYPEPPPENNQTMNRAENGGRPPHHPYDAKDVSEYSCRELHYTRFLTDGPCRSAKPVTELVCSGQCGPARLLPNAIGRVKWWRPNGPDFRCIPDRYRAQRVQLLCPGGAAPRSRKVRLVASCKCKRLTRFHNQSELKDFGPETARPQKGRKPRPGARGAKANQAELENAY

T3: rat sclerostin (rat)
T3 chain: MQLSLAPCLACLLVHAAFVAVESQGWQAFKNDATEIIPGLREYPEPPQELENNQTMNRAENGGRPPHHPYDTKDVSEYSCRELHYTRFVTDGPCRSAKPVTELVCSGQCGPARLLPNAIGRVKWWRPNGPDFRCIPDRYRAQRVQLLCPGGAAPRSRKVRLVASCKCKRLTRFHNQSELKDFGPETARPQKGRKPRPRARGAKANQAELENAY

T4: human sclerostin (human)
T4 chain: T1 chain with A16T, Q93P, A152E, P184T, G201S

B1: mabA_pH1 (antibody, V domains shown)
VH: EVQLVQSGAEVKKPGASVKVSCKASGYTFTDYNMHWVRQAPGQGLEWMGEINPNSGHAGYNQKFKGRVTMTTDTSTSTAYMELRSLRSDDTAVYYCARLHYDDIYDDWYFDVWGQGTTVTVSS
VL: DIQMTQSPSSLSASVGDRVTITCRASHDISNYLNWYQQKPGKAPKLLIYYTSRLLSGVPSRFSGSGSGTDFTLTISSLQPEDFATYYCQQGDTLPYTFGGGTKVEIK
B2: mabA_NpH1 (antibody, V domains shown)
VH: B1 VH with H57G, H100G, D111H
VL: B1 VL with H27Q, Y50H
B3: mabB_pH1 (antibody, V domains shown)
VH: QVQLVQSGAEVKKPGASVKVSCKVSGFPIKHHFQHWVRQAPGKGLEWMGWSDPEIGDTEYASKFQGRVTMTEDTSTDTAYMELSSLRSEDTAVYYCATGDTTYKFDFWGQGTTVTVSS
VL: DIQMTQSPSSLSASVGDRVTITCKASQDVHTAVAWYQQKPGKAPKLLIYWASTRWTGVPSRFSGSGSGTDFTLTISSLQPEDFATYYCQQYHDYPWTFGGGTKVEIK
B4: amH852/bsH656/abL152 (antibody)
chain 1: B1 VH with Q43K, N52M, N54H, H57R, A58Y, Y60L, N61K, H100E, D102S, D103E
chain 2: B1 VL with H27E, D28G, S30H, N31D, Y32A, N34A, Y50W, T51A, R53T, L55E
chain 3: B3 VH with F27Y, P28T, I29L, K30T, H32T, Q34M, F107Y, T113L
chain 4: B1 VL with H27E, D28G, S30H, N31D, Y32A, N34A, Y50W, T51A, R53T, L55E
B5: mabA (antibody, V domains shown)
VH: B1 VH with H57G, H100G
VL: B1 VL with H27Q
B6: mabA_pH3 (antibody, V domains shown)
VH: B1 VH with N54H, Y105H
VL: B1 VL
B7: amH852/bsH638/abL152 (antibody)
chain 1: B1 VH with Q43K, N52M, N54H, H57R, A58Y, Y60L, N61K, H100E, D102S, D103E
chain 2: B1 VL with H27E, D28G, S30H, N31D, Y32A, N34A, Y50W, T51A, R53T, L55E
chain 3: B3 VH with F27Y, P28T, I29L, K30T, H32T, Q34M, T58H, F107Y, T113L
chain 4: B1 VL with H27E, D28G, S30H, N31D, Y32A, N34A, Y50W, T51A, R53T, L55E
B8: mabA_pH2 (antibody, V domains shown)
VH: B1 VH with D103H
VL: B1 VL
B9: amH848/bsH638/abL152 (antibody)
chain 1: EVQLVQSGAEVKKPGASVKVSCKASGYTFTSYNMHWVRQAPGKGLEWMGEIMPHSGRYGLKQKFKGRVTMTRDTSISTAYMELSRLRSDDTAVYYCARLEYSEIYDDWYFDVWGQGTTVTVSS
chain 2: B1 VL with H27E, D28G, S30H, N31D, Y32A, N34A, Y50W, T51A, R53T, L55E
chain 3: B3 VH with F27Y, P28T, I29L, K30T, H32T, Q34M, T58H, F107Y, T113L
chain 4: B1 VL with H27E, D28G, S30H, N31D, Y32A, N34A, Y50W, T51A, R53T, L55E
B10: mabA_NpH2 (antibody, V domains shown)
VH: B1 VH with H57G, H100G
VL: B1 VL with H27Q, Y50H
B11: mabA_pH4 (antibody, V domains shown)
VH: B1 VH with N54H, Y105H
VL: B1 VL with S30H
B12: amH852/abL152 (antibody, V domains shown)
VH: B9 chain 1 with S31D, R72T, I76T, S84R, R85S
VL: B1 VL with H27E, D28G, S30H, N31D, Y32A, N34A, Y50W, T51A, R53T, L55E
B13: mabB//mabA_pH1 (antibody)
chain 1: B3 VH with H31D, H32T
chain 2: B3 VL with H92S
chain 3: B1 VH
chain 4: B1 VL
B14: mabB//mabA_pH2 (antibody)
chain 1: B3 VH with H31D, H32T
chain 2: B3 VL with H92S
chain 3: B1 VH with D103H
chain 4: B1 VL
B15: amH848/bsH656/abL152 (antibody)
chain 1: B9 chain 1
chain 2: B1 VL with H27E, D28G, S30H, N31D, Y32A, N34A, Y50W, T51A, R53T, L55E
chain 3: B3 VH with F27Y, P28T, I29L, K30T, H32T, Q34M, F107Y, T113L
chain 4: B1 VL with H27E, D28G, S30H, N31D, Y32A, N34A, Y50W, T51A, R53T, L55E
B16: mabB//mabA_pH3 (antibody)
chain 1: B3 VH with H31D, H32T
chain 2: B3 VL with H92S
chain 3: B1 VH with N54H, Y105H
chain 4: B1 VL

Legend:
cynomolgus sclerostin [1] = target: T1, cynomolgus sclerostin; experiment: SPR, pH 7.4, 37C
mouse sclerostin [2] = target: T2, mouse sclerostin; experiment: SPR, pH 5.8, 37C
rat sclerostin [3] = target: T3, rat sclerostin; experiment: SPR, pH 5.8, 37C
human sclerostin [4] = target: T4, human sclerostin; experiment: SPR, pH 7.4, 37C
mouse sclerostin [5] = target: T2, mouse sclerostin; experiment: SPR, pH 7.4, 37C
rat sclerostin [6] = target: T3, rat sclerostin; experiment: SPR, pH 7.4, 37C
cynomolgus sclerostin [7] = target: T1, cynomolgus sclerostin; experiment: SPR, pH 7.4 to 5.8, 37C
human sclerostin [8] = target: T4, human sclerostin; experiment: SPR, pH 7.4 to 5.8, 37C
cynomolgus sclerostin [9] = target: T1, cynomolgus sclerostin; experiment: SPR, pH 5.8, 37C
human sclerostin [10] = target: T4, human sclerostin; experiment: SPR, pH 5.8, 37C
mouse sclerostin [11] = target: T2, mouse sclerostin; experiment: SPR, pH 7.4 to 5.8, 37C
cynomolgus sclerostin [12] = target: T1, cynomolgus sclerostin; experiment: SPR, pH 7.4
human sclerostin [13] = target: T4, human sclerostin; experiment: SPR, pH 7.4
cynomolgus sclerostin [14] = target: T1, cynomolgus sclerostin; experiment: SPR, pH 7.4 to 5.8
human sclerostin [15] = target: T4, human sclerostin; experiment: SPR, pH 7.4 to 5.8
rat sclerostin [16] = target: T3, rat sclerostin; experiment: SPR, pH 7.4 to 5.8, 37C

Row | Binder | Kd (cynomolgus sclerostin [1]) [pM] | Kd (mouse sclerostin [2]) [pM] | Kd (rat sclerostin [3]) [pM] | Kd (human sclerostin [4]) [pM] | Kd (mouse sclerostin [5]) [pM] | Kd (rat sclerostin [6]) [pM] | koff (mouse sclerostin [11]) [s⁻¹] | koff (cynomolgus sclerostin [12]) [s⁻¹] | koff (human sclerostin [13]) [s⁻¹] | koff (cynomolgus sclerostin [14]) [s⁻¹] | koff (human sclerostin [15]) [s⁻¹] | also measured
1 | B1 | 202 | 5210 | 4200 | 213 | 63.2 | 25.2 |  |  |  |  |  | koff (cynomolgus sclerostin [7]): 0.0156 s⁻¹; koff (human sclerostin [8]): 0.0131 s⁻¹
2 | B2 | 189 | 503 | 292 | 193 | 204 | 82.6 |  |  |  |  |  | Kd (cynomolgus sclerostin [9]): 459 pM; Kd (human sclerostin [10]): 435 pM
3 | B3 |  |  |  |  | 138 |  | 0.0206 |  |  |  |  | 
4 | B4 |  |  |  |  |  |  |  | 0.000405 | 0.000419 | 0.116 | 0.0593 | 
5 | B5 | 75.3 |  | 0.00307 | 80 | 0.00302 | 0.0938 |  |  |  |  |  | Kd (cynomolgus sclerostin [9]): 1400 pM; Kd (human sclerostin [10]): 1440 pM
6 | B6 |  | 1050 |  |  | 287 | 184 |  |  |  |  |  | koff (rat sclerostin [16]): 0.0182 s⁻¹
7 | B7 |  |  |  |  |  |  |  | 0.000387 | 0.000418 | 0.0598 | 0.028 | 
8 | B8 | 252 | 5430 | 4450 | 258 | 80.7 | 31.2 |  |  |  |  |  | koff (cynomolgus sclerostin [7]): 0.0165 s⁻¹; koff (human sclerostin [8]): 0.0139 s⁻¹
9 | B9 |  |  |  |  |  |  |  | 0.000606 | 0.000596 | 0.227 | 0.1 | 
10 | B10 | 280 | 0.0168 | 0.0736 | 323 | 5.57 | 6.61 |  |  |  |  |  | Kd (cynomolgus sclerostin [9]): 627 pM; Kd (human sclerostin [10]): 690 pM
11 | B11 |  |  |  |  | 1730 |  | 0.0418 |  |  |  |  | 
12 | B12 |  |  |  |  |  |  |  | 0.0019 | 0.00257 | 0.107 | 0.0882 | 
13 | B13 |  |  |  |  |  |  | 0.0347 |  |  |  |  | 
14 | B14 |  |  |  |  |  |  | 0.0186 |  |  |  |  | 
15 | B15 |  |  |  |  |  |  |  | 0.000606 | 0.000515 | 0.374 | 0.222 | 
16 | B16 |  |  |  |  |  |  | 0.0516 |  |  |  |  | 
